Assay results taken from PMC5603541.

System: BoHV-1 whole virus (purified virion) (Bovine herpesvirus 1 (BK1952, CVCC; Methods also says field isolate from China))
Experiment: ELONA

Work on “GCTGCAATACTCATGGACAGGGCGGCGGGGTGGGGTGGGCGGTTTGATTCCCATGGGTGCGTCTGGAGTACGACCCTGAA [IBRV-A4]” yielded a Kd of 3.52 nM.
